Measured values as given in patent publication US20170342169A1 (published 2017).

Tests used:
[1] = target: T1, human CD40 on cells (HEK293 transfectants, HEK-Blue CD40 reporter cells, human B cells, moDC, PBMC) (human, UniProt P25942 21-277); test: cell-based or functional assay
[2] = target: T1, human CD40 on cells (HEK293 …); test: cell-based or functional assay; remark: listed apart in the source
[3] = target: CD40 (binding assays of Example 4; species and form not stated) (UniProt P25942 21-193, limits assumed); test: antigen binding, method not stated
cynomolgus 4-1BB = cynomolgus 4-1BB (cynomolgus); test: SPR
[4] = target: T2, MSLN (Table 10-1; species and form not stated); test: antigen binding, method not stated
T2 construct: also called mesothelin
T2 sequence (Q13421 37-606): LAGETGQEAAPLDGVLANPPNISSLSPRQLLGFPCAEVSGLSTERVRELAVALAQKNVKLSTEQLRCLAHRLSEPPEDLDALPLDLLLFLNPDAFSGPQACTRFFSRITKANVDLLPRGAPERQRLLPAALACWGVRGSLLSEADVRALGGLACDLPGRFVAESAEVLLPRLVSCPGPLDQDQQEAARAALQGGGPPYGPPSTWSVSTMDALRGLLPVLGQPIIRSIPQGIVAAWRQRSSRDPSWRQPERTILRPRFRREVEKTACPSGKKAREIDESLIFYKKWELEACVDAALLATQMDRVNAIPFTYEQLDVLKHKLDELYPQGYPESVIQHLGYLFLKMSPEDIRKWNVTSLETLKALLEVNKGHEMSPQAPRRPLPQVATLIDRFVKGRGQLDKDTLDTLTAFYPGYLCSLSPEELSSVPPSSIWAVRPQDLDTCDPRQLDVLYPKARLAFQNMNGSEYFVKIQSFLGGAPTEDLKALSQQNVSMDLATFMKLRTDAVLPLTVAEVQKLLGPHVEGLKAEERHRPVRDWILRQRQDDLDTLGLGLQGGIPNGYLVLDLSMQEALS

CD40 (binding assays of Example 4; species and form not stated), sequence (P25942 21-193 limits assumed): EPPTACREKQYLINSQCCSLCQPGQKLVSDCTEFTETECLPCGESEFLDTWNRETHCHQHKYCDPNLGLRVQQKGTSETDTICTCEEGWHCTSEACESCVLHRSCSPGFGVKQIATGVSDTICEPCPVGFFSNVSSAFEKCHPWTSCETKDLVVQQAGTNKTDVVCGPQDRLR
T1 sequence (P25942 21-277 limits assumed): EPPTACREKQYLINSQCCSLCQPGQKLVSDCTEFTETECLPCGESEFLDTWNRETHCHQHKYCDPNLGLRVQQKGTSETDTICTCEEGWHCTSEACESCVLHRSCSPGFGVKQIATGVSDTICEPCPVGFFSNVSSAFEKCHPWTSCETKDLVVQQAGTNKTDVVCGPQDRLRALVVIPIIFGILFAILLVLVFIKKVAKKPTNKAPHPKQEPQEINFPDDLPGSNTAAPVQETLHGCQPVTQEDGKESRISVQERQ

B1: CF1 (bispecific antibody, human IgG1, lambda)
heavy: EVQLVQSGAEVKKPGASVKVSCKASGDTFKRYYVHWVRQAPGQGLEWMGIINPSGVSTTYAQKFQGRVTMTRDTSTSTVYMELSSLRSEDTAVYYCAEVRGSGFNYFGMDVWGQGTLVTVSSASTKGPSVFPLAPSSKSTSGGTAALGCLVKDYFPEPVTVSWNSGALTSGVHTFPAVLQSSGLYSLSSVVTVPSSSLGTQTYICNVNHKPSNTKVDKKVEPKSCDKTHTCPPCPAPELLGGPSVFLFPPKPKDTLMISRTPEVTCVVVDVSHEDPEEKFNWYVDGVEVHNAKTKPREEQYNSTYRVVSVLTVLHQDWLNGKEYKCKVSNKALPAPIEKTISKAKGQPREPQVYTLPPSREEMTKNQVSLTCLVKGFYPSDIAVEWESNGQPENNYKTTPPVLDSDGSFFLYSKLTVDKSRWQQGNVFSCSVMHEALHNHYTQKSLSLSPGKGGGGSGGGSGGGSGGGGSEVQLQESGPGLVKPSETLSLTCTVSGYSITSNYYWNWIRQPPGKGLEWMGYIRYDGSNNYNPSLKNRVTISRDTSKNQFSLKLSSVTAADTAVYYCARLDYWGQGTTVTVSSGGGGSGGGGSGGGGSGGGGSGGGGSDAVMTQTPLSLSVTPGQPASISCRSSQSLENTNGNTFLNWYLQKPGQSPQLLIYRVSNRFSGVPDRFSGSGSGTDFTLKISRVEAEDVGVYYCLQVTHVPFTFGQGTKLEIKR
light: SYELTQPPSVSVSPGQTASITCSGDKLGDKYASWYQQKPGQSPVLVIYQDNRRPSGIPERFSGSNSGNTATLTISGTQAMDEADYYCQAWDSDTYVFGTGTKVTVLGQPKAAPSVTLFPPSSEELQANKATLVCLISDFYPGAVTVAWKADSSPVKAGVETTTPSKQSNNKYAASSYLSLTPEQWKSHRSYSCQVTHEGSTVEKTVAPTECS
With B1 the “Max. IL-12p70, dendritic cells” value [1] was 100 pg/mL.

B2: CF3 (bispecific antibody, human IgG1, lambda)
heavy: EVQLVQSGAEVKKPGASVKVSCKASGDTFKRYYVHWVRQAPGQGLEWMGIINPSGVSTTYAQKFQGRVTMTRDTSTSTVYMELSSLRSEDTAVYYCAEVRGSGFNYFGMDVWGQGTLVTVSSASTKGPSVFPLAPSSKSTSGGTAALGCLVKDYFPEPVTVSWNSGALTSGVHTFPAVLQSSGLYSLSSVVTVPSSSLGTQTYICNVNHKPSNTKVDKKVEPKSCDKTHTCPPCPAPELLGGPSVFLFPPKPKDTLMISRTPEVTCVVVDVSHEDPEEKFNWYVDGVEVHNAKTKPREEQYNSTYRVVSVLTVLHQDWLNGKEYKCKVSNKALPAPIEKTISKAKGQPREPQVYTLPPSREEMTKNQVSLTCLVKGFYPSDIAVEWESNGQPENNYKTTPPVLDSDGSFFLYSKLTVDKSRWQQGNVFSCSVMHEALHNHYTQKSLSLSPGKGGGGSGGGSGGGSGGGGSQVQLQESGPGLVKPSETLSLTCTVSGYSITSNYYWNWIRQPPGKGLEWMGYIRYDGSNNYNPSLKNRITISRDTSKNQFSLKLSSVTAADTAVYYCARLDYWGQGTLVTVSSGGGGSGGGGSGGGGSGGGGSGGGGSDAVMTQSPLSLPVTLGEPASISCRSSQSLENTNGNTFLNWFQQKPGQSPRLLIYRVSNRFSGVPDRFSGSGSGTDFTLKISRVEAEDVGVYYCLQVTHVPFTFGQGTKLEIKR
light: SYELTQPPSVSVSPGQTASITCSGDKLGDKYASWYQQKPGQSPVLVIYQDNRRPSGIPERFSGSNSGNTATLTISGTQAMDEADYYCQAWDSDTYVFGTGTKVTVLGQPKAAPSVTLFPPSSEELQANKATLVCLISDFYPGAVTVAWKADSSPVKAGVETTTPSKQSNNKYAASSYLSLTPEQWKSHRSYSCQVTHEGSTVEKTVAPTECS
In the case of B2, the “Max. IL-12p70, dendritic cells” value [1] is reported as 75 pg/mL.

B3: huAb9-5 (antibody, human IgG1, kappa)
heavy: not shown
light: DAVMTQTPLSLSVTPGQPASISCRSSQSLENTNGNTFLNWYLQKPGQSPQLLIYRVSNRFSGVPDRFSGSGSGTDFTLKISRVEAEDVGVYYCLQVTHVPFTFGQGTKLEIKRTVAAPSVFIFPPSDEQLKSGTASVVCLLNNFYPREAKVQWKVDNALQSGNSQESVTEQDSKDSTYSLSSTLTLSKADYEKHKVYACEVTHQGLSSPVTKSFNRGEC
notes: human IgG1, kappa
B3 was tested, and the “Maximal activation (OD655)” value [2] was 0.67 OD655 and the EC50 [3] was 0.2 µg/mL.

B4: TABBY106-rIgG1 (antibody, V domains shown)
VH: QVQLQQSGAELAKPGTSVKLSCKASGYTFTSYYIYWVKQRPGQGLEWIGNIWPGNGGTFYGEKFMGKATFTADTSSSTAYMLLGSLTPEDSAYYFCARRPDYSGDDYFDYWGQGVLVTVSS
VL: QVVLTQPKSVSTSLKSTVKLSCKLNSGNIGSYYVHWYQQHAGRSPTTMIYRDDKRPDGVPDRFSGSIDSSSNSAFLTINNVQTEDDAIYFCHSYDSTITPVFGGGTKLTVL
notes: Rat IgG1, lambda
B4 gave a Kd (cynomolgus 4-1BB) of 18 nM, a koff (cynomolgus 4-1BB) of 0.022 s⁻¹ and a kon (cynomolgus 4-1BB) of 1.2e+06 M⁻¹ s⁻¹.

B5: TABBY107-rIgG1 (antibody, V domains shown)
VH: QVKLVQSGAALVKPGASVKMSCKASDYTFNDYWVSWVKQRHGESLEWIGEIYPNSGATNFNGKFRGKATLTVDNPTSTAYMELSRLTSEDSAIYYCTREYTRDWFAYWGQGTLVTVSS
VL: DVVLTQTPSILSATIGQSVSISCRSSQSLLDSDGNTYLYWFLQRPGQSPQRLIYLVSNLGSGVPNRFSGSGSGTDFTLKISGVEAEDLGIYYCMQPTHAPYTFGAGTKLELK
notes: Rat IgG1, kappa
With B5 the Kd (cynomolgus 4-1BB) was 0.36 nM, the koff (cynomolgus 4-1BB) was 0.00013 s⁻¹ and the kon (cynomolgus 4-1BB) was 350000 M⁻¹ s⁻¹.

B6: LB-1 (bispecific antibody, mouse IgG1)
chain: EVQLVESGGGLVQPGRSLKLSCAASGFTFSNYDMAWVRQAPTKGLEWVASISPSGGRTYYRDSVKGRFTVSRDNAKSTLYLQMDSLRSEDTATYYCARHDGSYFDYWGQGVMVTVSSDLSGGGGSGGGGSGGGGSGGGGSTGDTVLTQSPALAVSPGERVTISCRASESVSTLMHWYQQKPGQQPKLLIYLASHLESGVPARFSGSGSGTDFTLTIDPVEADDTATYYCQESWNDPWTFGGGTKLELKRLEVPRDSGSKPCICTVPEVSSVFIFPPKPKDVLTITLTPKVTCVVVDISKDDPEVQFSWFVDDVEVHTAQTQPREEQFNSTFRSVSELPIMHQDWLNGKEFKCRVNSAAFPAPIEKTISKTKGRPKAPQVYTIPPPKEQMAKDKVSLTCMITDFFPEDITVEWQWNGQPAENYKNTQPIMDTDGSYFVYSKLNVQKSNWEAGNTFTCSVLHEGLHNHHTEKSLSHSPGKVDGASSPVNVSSPSVQDIQVQLVQSGAEVKKPGASVKVSCKASGYTFTGNYINWVRQAPGQGLEWMGIINPTKGWTLYAQKFQGRVTMTRDTSISTAYMELSSLRSEDTAVYYCARWHHGTWIFDYWGQGTLVTVSSDLSGGGGSGGGGSGGGGSGGGGSTGDIVLTQPPSVSGAPGQRVTISCSGSSSNIGSNYVSWYQQLPGTAPKLLIYNDNQRPSGVPDRFSGSKSGTSASLAITGLQSEDEADYYCSTYDRRTFSVFGGGTKLTVLG
notes: 1C10 scFv (VH-VL), murine IgG1 hinge-CH2-CH3, MOR06626 scFv (VH-VL)
Binder B6 has an EC50 [4] of 1.39 µg/mL.

B7: huAb8-1 (antibody, human IgG1, V domains shown)
VH: EVQLVQSGAEVKKPGSSVKVSCKASGYTFTDYYINWVRQAPGQGLEWIGWIFPGSGSVYCNEQFKGRATLTVDRSTSTAYMELSSLRSEDTAVYFCASSLGKFAYWGQGTLVTVSS
VL: DIQMTQSPSSLSASVGDRVTITCKASQSVVTAVAWYQQKPGKSPKLLIYSASNRYTGVPSRFSGSGSGTDFTLTISSLQPEDFATYFCQQYSSYPYTFGGGTKVEIK
With B7 the “Maximal activation (OD655)” value [2] was 0.45 OD655 and the EC50 [3] was 0.4 µg/mL.

B8: anti-MSLN antibody (MOR06626 mIgG1) (antibody, V domains shown)
VH: QVQLVQSGAEVKKPGASVKVSCKASGYTFTGNYINWVRQAPGQGLEWMGIINPTKGWTLYAQKFQGRVTMTRDTSISTAYMELSSLRSEDTAVYYCARWHHGTWIFDYWGQGTLVTVSS
VL: DIVLTQPPSVSGAPGQRVTISCSGSSSNIGSNYVSWYQQLPGTAPKLLIYNDNQRPSGVPDRFSGSKSGTSASLAITGLQSEDEADYYCSTYDRRTFSVFGGGTKLTVLG
With B8 the EC50 [4] was 0.06 µg/mL.

B9: B39 (bispecific antibody, IgG2)
chain: EVQLQESGPGLVKPSETLSLTCTVSGYSITSNYYWNWIRQPPGKGLEWMGYIRYDGSNNYNPSLKNRVTISRDTSKNQFSLKLSSVTAADTAVYYCARLDYWGQGTTVTVSSDLSGGGGSGGGGSGGGGSGGGGSTGDAVMTQTPLSLSVTPGQPASISCRSSQSLENTNGNTFLNWYLQKPGQSPQLLIYRVSNRFSGVPDRFSGSGSGTDFTLKISRVEAEDVGVYYCLQVTHVPFTFGQGTKLEIKRVERKSSVECPPCPAPPVAGPSVFLFPPKPKDTLMISRTPEVTCVVVDVSHEDPEVQFNWYVDGVEVHNAKTKPREEQFNSTFRVVSVLTVVHQDWLNGKEYKCKVSNKGLPAPIEKTISKTKGQPREPQVYTLPPSREEMTKNQVSLTCLVKGFYPSDIAVEWESNGQPENNYKTTPPMLDSDGSFFLYSKLTVDKSRWQQGNVFSCSVMHEALHNHYTQKSLSLSPGKVDGASSPVNVSSPSVQDIEVQLVQSGAEVKKPGASVKVSCKASGDTFKRYYVHWVRQAPGQGLEWMGIINPSGVSTTYAQKFQGRVTMTRDTSTSTVYMELSSLRSEDTAVYYCAEVRGSGFNYFGMDVWGQGTLVTVSSDLSGGGGSGGGGSGGGGSGGGGSTGSYELTQPPSVSVSPGQTASITCSGDKLGDKYASWYQQKPGQSPVLVIYQDNRRPSGIPERFSGSNSGNTATLTISGTQAMDEADYYCQAWDSDTYVFGTGTKVTVLGQ
notes: huAb9-5 (VH-VL) N-terminal, HuAM15 (VH-VL) C-terminal, huIgG2
For B9, the EC50 [3] was 0.5 µg/mL.
